Assay results from paper PMC8828546, “OsWRKY53 Promotes Abscisic Acid Accumulation to Accelerate Leaf Senescence and Inhibit Seed Germination by Downregulating Abscisic Acid Catabolic Genes in Rice”.

Molecular target: OsWRKY53 (Oryza sativa (rice), UniProt A7BEY7 1-487)
Assay: EMSA; unlabeled probe competitor at 10-, 50-, 100-fold also run (outcome only in gel); EMSA: room temperature, 20 min; binding buffer, salt and pH not stated; 6% native acrylamide gel, 0.5x TBE, 4 C, 110 V, 2 h
Settings: protein: recombinant; tags: His; TF (pCold-TF vector); label: 5'-FAM on one strand; annealed with complementary oligo

Sequence of OsWRKY53 (A7BEY7 entry or part of it): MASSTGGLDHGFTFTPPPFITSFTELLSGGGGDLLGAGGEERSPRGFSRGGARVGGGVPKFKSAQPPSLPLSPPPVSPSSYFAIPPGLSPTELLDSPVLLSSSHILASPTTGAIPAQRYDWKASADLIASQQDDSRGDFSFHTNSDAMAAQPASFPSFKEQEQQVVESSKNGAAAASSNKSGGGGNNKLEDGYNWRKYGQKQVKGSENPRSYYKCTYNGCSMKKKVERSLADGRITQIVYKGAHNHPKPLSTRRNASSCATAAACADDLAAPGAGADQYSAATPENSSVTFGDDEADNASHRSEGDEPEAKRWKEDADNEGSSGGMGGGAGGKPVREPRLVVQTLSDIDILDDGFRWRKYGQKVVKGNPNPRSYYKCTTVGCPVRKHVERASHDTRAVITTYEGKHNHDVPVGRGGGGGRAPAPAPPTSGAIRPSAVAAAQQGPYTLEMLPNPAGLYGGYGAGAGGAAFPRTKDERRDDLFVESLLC

B1: OsABA8ox1 promoter W-box probe (dsDNA)
DNA 1: ACAGGTTGACCTTTGCAT
DNA 2: ATGCAAAGGTCAACCTGT
binding result: binds
